Experimental data published in publication PMC9482650, “Quantitative fragmentomics allow affinity mapping of interactomes” (Nature Communications, 2022).

T1: MPDZ_10, O75970
T1 sequence (O75970 1624-1722, limits assumed, looked up): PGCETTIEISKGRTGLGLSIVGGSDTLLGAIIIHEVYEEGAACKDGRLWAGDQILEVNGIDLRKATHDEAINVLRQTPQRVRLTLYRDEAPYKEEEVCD

T2: DLG3_2, Q92796
T2 sequence (Q92796 221-321, limits assumed, looked up): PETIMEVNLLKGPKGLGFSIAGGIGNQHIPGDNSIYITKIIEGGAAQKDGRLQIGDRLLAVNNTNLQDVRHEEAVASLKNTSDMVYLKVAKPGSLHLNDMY

T3: DLG3_1, Q92796
T3 sequence (Q92796 125-227, limits assumed, looked up): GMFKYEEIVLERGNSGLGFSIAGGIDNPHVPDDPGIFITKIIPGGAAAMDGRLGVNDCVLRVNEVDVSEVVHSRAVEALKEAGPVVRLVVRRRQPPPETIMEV

T4: LIN7B, Q9HAP6
T4 sequence (Q9HAP6 88-185, limits assumed, looked up): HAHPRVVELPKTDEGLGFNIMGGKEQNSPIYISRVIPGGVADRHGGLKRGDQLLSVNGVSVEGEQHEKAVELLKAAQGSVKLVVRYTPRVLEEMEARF

T5: MPDZ_12, O75970
T5 sequence (O75970 1857-1958, limits assumed, looked up): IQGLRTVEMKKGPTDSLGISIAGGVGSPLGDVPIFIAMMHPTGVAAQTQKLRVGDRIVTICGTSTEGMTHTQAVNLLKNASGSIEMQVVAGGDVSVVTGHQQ

T6: NHERF3_3, Q5T2W1
T6 sequence (Q5T2W1 238-333, limits assumed, looked up): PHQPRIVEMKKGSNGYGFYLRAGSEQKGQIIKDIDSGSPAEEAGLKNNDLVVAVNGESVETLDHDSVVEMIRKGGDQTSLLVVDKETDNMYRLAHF

T7: SIPA1L2, Q9P2F8
T7 sequence (Q9P2F8 945-1036, limits assumed, looked up): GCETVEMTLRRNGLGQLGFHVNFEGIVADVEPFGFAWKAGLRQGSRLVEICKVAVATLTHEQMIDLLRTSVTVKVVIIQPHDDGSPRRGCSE

T8: MPDZ_5, O75970
T8 sequence (O75970 695-796, limits assumed, looked up): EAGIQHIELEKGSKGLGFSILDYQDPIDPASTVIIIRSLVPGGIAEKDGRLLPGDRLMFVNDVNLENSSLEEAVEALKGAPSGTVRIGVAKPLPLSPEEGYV

T9: DFNB31_1, Q9P202
T9 sequence (Q9P202 135-233, limits assumed, looked up): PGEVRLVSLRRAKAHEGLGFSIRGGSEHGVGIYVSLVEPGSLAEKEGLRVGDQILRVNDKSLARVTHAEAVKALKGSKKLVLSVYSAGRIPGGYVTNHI

T10: SNTG2, Q9NY99
T10 sequence (Q9NY99 68-166, limits assumed, looked up): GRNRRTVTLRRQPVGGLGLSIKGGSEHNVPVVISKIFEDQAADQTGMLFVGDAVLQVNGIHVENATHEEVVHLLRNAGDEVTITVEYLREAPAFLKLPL

T11: PDZRN3_1, Q9UPQ7
T11 sequence (Q9UPQ7 244-349, limits assumed, looked up): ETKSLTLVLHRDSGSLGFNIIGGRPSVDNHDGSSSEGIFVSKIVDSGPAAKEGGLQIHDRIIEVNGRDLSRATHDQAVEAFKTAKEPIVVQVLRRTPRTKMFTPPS

T12: RAPGEF6, Q8TEU7
T12 sequence (Q8TEU7 525-625, limits assumed, looked up): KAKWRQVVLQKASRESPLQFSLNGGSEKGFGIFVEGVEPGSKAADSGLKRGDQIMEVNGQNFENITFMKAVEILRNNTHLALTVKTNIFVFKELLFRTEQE

B1: KIRREL1, Q96J84 (peptide)
chain: RFQQRMQTHV

target: T1, MPDZ_10, O75970; assay: holdup assay; design: key: below the threshold = too weak to quantify, mostly under pKd 3.1 to 4; settings: plain residues with an end cap or a label only (N-terminal biotin on a linker: ado-ado)

Binder | pKd
B1 | below the threshold

target: AHNAK1, Q09666; assay: holdup assay; design: key: below the threshold = too weak to quantify, mostly under pKd 3.1 to 4; settings: plain residues with an end cap or a label only (N-terminal biotin on a linker: ado-ado)
Sequence (Q09666 4-100): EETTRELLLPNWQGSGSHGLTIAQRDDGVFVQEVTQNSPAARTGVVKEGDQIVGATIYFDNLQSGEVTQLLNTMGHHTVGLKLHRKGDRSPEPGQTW

Binder | pKd
B1 | below the threshold

target: T2, DLG3_2, Q92796; assay: holdup assay; design: key: below the threshold = too weak to quantify, mostly under pKd 3.1 to 4; settings: plain residues with an end cap or a label only (N-terminal biotin on a linker: ado-ado)

Binder | pKd
B1 | 4.69

target: Inadl_5, Q8NI35; assay: holdup assay; design: key: below the threshold = too weak to quantify, mostly under pKd 3.1 to 4; settings: plain residues with an end cap or a label only (N-terminal biotin on a linker: ado-ado)
Sequence (Q8NI35 673-780): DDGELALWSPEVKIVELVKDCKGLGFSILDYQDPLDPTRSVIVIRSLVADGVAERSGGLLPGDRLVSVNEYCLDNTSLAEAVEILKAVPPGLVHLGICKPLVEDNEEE

Binder | pKd
B1 | 3.6

target: SCRIB_1, Q14160; assay: holdup assay; design: key: below the threshold = too weak to quantify, mostly under pKd 3.1 to 4; settings: plain residues with an end cap or a label only (N-terminal biotin on a linker: ado-ado)
Sequence (Q14160 718-814): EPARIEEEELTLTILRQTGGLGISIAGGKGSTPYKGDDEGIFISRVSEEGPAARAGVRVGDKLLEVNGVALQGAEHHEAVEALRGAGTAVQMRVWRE

Binder | pKd
B1 | 4.25

target: SNX27, Q96L92; assay: holdup assay; design: key: below the threshold = too weak to quantify, mostly under pKd 3.1 to 4; settings: plain residues with an end cap or a label only (N-terminal biotin on a linker: ado-ado)

Binder | pKd
B1 | 3.85

target: T3, DLG3_1, Q92796; assay: holdup assay; design: key: below the threshold = too weak to quantify, mostly under pKd 3.1 to 4; settings: plain residues with an end cap or a label only (N-terminal biotin on a linker: ado-ado)

Binder | pKd
B1 | 3.57

target: T4, LIN7B, Q9HAP6; assay: holdup assay; design: key: below the threshold = too weak to quantify, mostly under pKd 3.1 to 4; settings: plain residues with an end cap or a label only (N-terminal biotin on a linker: ado-ado)

Binder | pKd
B1 | below the threshold

target: T5, MPDZ_12, O75970; assay: holdup assay; design: key: below the threshold = too weak to quantify, mostly under pKd 3.1 to 4; settings: plain residues with an end cap or a label only (N-terminal biotin on a linker: ado-ado)

Binder | pKd
B1 | below the threshold

target: T6, NHERF3_3, Q5T2W1; assay: holdup assay; design: key: below the threshold = too weak to quantify, mostly under pKd 3.1 to 4; settings: plain residues with an end cap or a label only (N-terminal biotin on a linker: ado-ado)

Binder | pKd
B1 | below the threshold

target: Inadl_3, Q8NI35; assay: holdup assay; design: key: below the threshold = too weak to quantify, mostly under pKd 3.1 to 4; settings: plain residues with an end cap or a label only (N-terminal biotin on a linker: ado-ado)
Sequence (Q8NI35 359-469): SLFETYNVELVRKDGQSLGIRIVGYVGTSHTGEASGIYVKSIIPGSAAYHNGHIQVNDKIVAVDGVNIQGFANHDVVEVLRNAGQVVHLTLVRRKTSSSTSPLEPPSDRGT

Binder | pKd
B1 | below the threshold

target: TJP1_3, Q07157; assay: holdup assay; design: key: below the threshold = too weak to quantify, mostly under pKd 3.1 to 4; settings: plain residues with an end cap or a label only (N-terminal biotin on a linker: ado-ado)
Sequence (Q07157 416-512): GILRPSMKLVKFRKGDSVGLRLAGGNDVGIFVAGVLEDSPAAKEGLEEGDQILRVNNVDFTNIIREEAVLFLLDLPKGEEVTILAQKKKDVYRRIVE

Binder | pKd
B1 | below the threshold

target: NHERF4_4, Q86UT5; assay: holdup assay; design: key: below the threshold = too weak to quantify, mostly under pKd 3.1 to 4; settings: plain residues with an end cap or a label only (N-terminal biotin on a linker: ado-ado)
Sequence (Q86UT5 464-550): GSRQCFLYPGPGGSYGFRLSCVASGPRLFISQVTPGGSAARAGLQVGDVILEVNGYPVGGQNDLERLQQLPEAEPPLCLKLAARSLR

Binder | pKd
B1 | below the threshold

target: T7, SIPA1L2, Q9P2F8; assay: holdup assay; design: key: below the threshold = too weak to quantify, mostly under pKd 3.1 to 4; settings: plain residues with an end cap or a label only (N-terminal biotin on a linker: ado-ado)

Binder | pKd
B1 | below the threshold

target: DLG1_3, Q12959; assay: holdup assay; design: key: below the threshold = too weak to quantify, mostly under pKd 3.1 to 4; settings: plain residues with an end cap or a label only (N-terminal biotin on a linker: ado-ado)
Sequence (Q12959 457-571): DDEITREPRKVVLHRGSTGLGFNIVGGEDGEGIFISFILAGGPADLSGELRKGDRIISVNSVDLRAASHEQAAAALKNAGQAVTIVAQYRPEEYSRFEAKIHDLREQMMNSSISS

Binder | pKd
B1 | 3.68

target: FRMPD2_3, Q68DX3; assay: holdup assay; design: key: below the threshold = too weak to quantify, mostly under pKd 3.1 to 4; settings: plain residues with an end cap or a label only (N-terminal biotin on a linker: ado-ado)
Sequence (Q68DX3 1073-1166): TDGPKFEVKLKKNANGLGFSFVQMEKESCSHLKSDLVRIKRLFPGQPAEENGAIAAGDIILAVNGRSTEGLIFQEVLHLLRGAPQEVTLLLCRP

Binder | pKd
B1 | below the threshold

target: T8, MPDZ_5, O75970; assay: holdup assay; design: key: below the threshold = too weak to quantify, mostly under pKd 3.1 to 4; settings: plain residues with an end cap or a label only (N-terminal biotin on a linker: ado-ado)

Binder | pKd
B1 | below the threshold

target: T9, DFNB31_1, Q9P202; assay: holdup assay; design: key: below the threshold = too weak to quantify, mostly under pKd 3.1 to 4; settings: plain residues with an end cap or a label only (N-terminal biotin on a linker: ado-ado)

Binder | pKd
B1 | 3.52

target: T10, SNTG2, Q9NY99; assay: holdup assay; design: key: below the threshold = too weak to quantify, mostly under pKd 3.1 to 4; settings: plain residues with an end cap or a label only (N-terminal biotin on a linker: ado-ado)

Binder | pKd
B1 | below the threshold

target: T11, PDZRN3_1, Q9UPQ7; assay: holdup assay; design: key: below the threshold = too weak to quantify, mostly under pKd 3.1 to 4; settings: plain residues with an end cap or a label only (N-terminal biotin on a linker: ado-ado)

Binder | pKd
B1 | below the threshold

target: GRID2IP_1, A4D2P6; assay: holdup assay; design: key: below the threshold = too weak to quantify, mostly under pKd 3.1 to 4; settings: plain residues with an end cap or a label only (N-terminal biotin on a linker: ado-ado)
Sequence (A4D2P6 1-87): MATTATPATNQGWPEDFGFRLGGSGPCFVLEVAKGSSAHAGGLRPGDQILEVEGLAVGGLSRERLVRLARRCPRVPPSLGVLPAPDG

Binder | pKd
B1 | below the threshold

target: LDB3, O75112; assay: holdup assay; design: key: below the threshold = too weak to quantify, mostly under pKd 3.1 to 4; settings: plain residues with an end cap or a label only (N-terminal biotin on a linker: ado-ado)
Sequence (O75112 1-94): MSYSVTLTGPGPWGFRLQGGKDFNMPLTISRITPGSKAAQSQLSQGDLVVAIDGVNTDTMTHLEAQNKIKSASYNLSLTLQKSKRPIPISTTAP

Binder | pKd
B1 | below the threshold

target: T12, RAPGEF6, Q8TEU7; assay: holdup assay; design: key: below the threshold = too weak to quantify, mostly under pKd 3.1 to 4; settings: plain residues with an end cap or a label only (N-terminal biotin on a linker: ado-ado)

Binder | pKd
B1 | below the threshold

target: NHERF4_2, Q86UT5; assay: holdup assay; design: key: below the threshold = too weak to quantify, mostly under pKd 3.1 to 4; settings: plain residues with an end cap or a label only (N-terminal biotin on a linker: ado-ado)
Sequence (Q86UT5 220-308): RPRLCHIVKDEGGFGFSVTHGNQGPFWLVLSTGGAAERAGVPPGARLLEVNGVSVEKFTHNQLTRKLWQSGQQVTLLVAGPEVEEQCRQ

Binder | pKd
B1 | below the threshold
